# Measured values published in publication PMC10944524.
# How the values were obtained:
# [1] = molecular target: Unmasked Catcher (Masked SpyCatcher003 after cleavage by superTEV protease); assay: covalent coupling (isopeptide bond) followed by SDS-PAGE and densitometry; Masked SpyCatcher003, before or after cleavage by superTEV protease, with SpyTag003-MBP; both partners at 5 µM, 37 °C, PBS pH 7.4, time course
# [2] = molecular target: Masked SpyCatcher003 (N-terminal His6 tag-SpyCatcher003-TEV protease cleavage site-SpyTag003 D117A); assay: as above
# [3] = molecular target: DoubleCatcher (N-terminal His6 tag-TEV protease cleavage site-two SpyCatcher003 moieties connected by a (GSG)3 spacer-TEV protease cleavage site-SpyTag003 DA); assay: covalent coupling (isopeptide bond) followed by SDS-PAGE and densitometry; DoubleCatcher 2.5 µM with SpyTag003-mClover3 5 µM, no TEV protease, PBS pH 7.4, 37 °C, time course
# [4] = molecular target: unmasked DoubleCatcher:SpyTag003-MBP; assay: covalent coupling (isopeptide bond) followed by SDS-PAGE and densitometry; step 1: DoubleCatcher with two-fold excess SpyTag003-MBP for 2 h, excess removed on bead-immobilized SpyCatcher003; step 2: superTEV protease at 34 °C, then 2 µM of the cleaved construct with 10 µM SUMO-SpyTag003, time course
substance,measurement,setting,value
SpyTag003 linked to maltose-binding protein (MBP),half-time of reaction (t1/2),[1],2.7 min
same,percent reacted,[1],> 99%
same,percent reacted after 60 min,[2],3.7%
SpyTag003 linked to the green fluorescent protein mClover3,half-time of reaction (t1/2),[3],0.58 min
same,percent reacted after 1 h,[3],91%
SpyTagged Small Ubiquitin-like Modifier (N-terminal His6 tag-SUMO protein-SpyTag003),half-time of reaction (t1/2),[4],3.6 min
same,percent reacted,[4],> 98%
